From the domain aggregation screens of Martell et al. (2025)

Assay: soluble fraction after stress (log2 fold change); higher = more stays soluble; pooled small domains, quantitative proteomics
Settings: stress: pH 4
How it was run: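 Following acid stress at pH 4, the amount of each small protein domain still soluble was measured in pooled custom libraries by high-throughput quantitative proteomics. Its fold change, on a log2 scale, is higher when more of the domain stayed soluble. This fold change is taken as a measure of aggregation propensity.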

Row | Sequence | soluble fraction (log2)
1 | HMTTIPAGRQQYILSLIRREGTVTVSRLAQELEVSELTIRRDLDQMAARNLVERTHGGATERR | ≥ 0.43
2 | HMTTKEEAAYQAIRSAIIDGELKPGQSVTIRDLASRFDLGRTPITDAMKHLALDGWLETTTGVGTRV | -0.15
3 | HMTTLAADFNSDGRVDIGDLSILAGNWGKSRTNEVDFNKYGDADYNGRIDIIDLSILATQFGQTDNSN | -0.142
4 | HMTTLDTVARQLRDRIREQLDPTGEMSDESLLRTIEEAVYRYSSSGHVLTANEKETVIRRIFHSFR | -0.201
5 | HMTTMNSADLIKELEKAGWTLRGVKGSHHIYTHPARGGHLSVPHPKKDLGAGLARQLRKQAGL | 0.346
6 | HMTTPAAISKIKKLEEAKRLLATTTYSMKEIAVKLKYKSHTHFGMDFKNNTGMTPAEYRKAIKAKREKQMN | 0.173
7 | HMTTQERVSYSAFINDVETGRVAKVVISGYTIEGTRTNNSSFVTERPYGVDSNLSEVLMQNSVSIEGKA | -0.523
8 | HMTTQVNTVKIQLANGYEMTVLTSKTNVKEILEDNNIILENNEKVTPNIDEEISSNKTIKITDKSN | -0.0659
9 | HMTTTSGLIKTIQTGRRKLGMDDETYRALLADVSGGKTSSKDLNAYQLKEVLRRMREAGFRS | 0.371
10 | HMTVDAVALGRRVRHLRKQAGLTLDQLAERTGVSGSHLSLVENARREPRLSLVQRIAEVLGVPVEDL | -0.602
11 | HMTVGEKIQYYRKKIGLSQEELGQKMLLSRQTISLWEMDKTLPTVDNLLRLKEIFSVSIDELLSENEPK | -0.257
12 | HMTVKNFNDLPGFKNENLAELKAMGITTISELAEALNDGGKIKEIIKNLSGVGPKTAEKWKDAIG | -0.173
13 | HMTVKVPDLRGKTLAEMQRILDDAGLKYEINDSTFSRTAIPGTVREVIPAPGSEVKLGRILFIAINGF | 0.00881
14 | HMTVLIDEQSSDGLLKITVTANTAVKSITIADELLEDKEQLEDYLILVLNKAIARANQVNQTELDAVAK | 0.163
15 | HMTVPAGIVLSSIRQDGDVLHIRGTAQSTERLNFFRNSFSASWGSPAQNGKRKADPVTGLVDFTISLK | -1.16
16 | HMTVPMKILILEDEQRNAMRLIRLLNDIDTTFIIEGPLTNIKEAVDFFQSGKTTDLILADIRL | -0.489
17 | HMTVSADQTTADAVIKLIDAIGTVSKNSGSAISAARSGYDALTDAQKKLVTNYNKLTQAEQVFSSLS | -0.165
18 | HMTVSLTDVPFVPEILDRLERPELDVLLAILNGATNTFDLAAKTGRSRDELDEVLDRLTTLGLIER | -1.12
19 | HMTVTLTTLRNGSTGAQVKTLQRLLSAMDYYNGETDGKFGISTAAAVKAFQRAKRLTVDGIVGKNTWTALL | -0.0337
20 | HMTVTMADISQAYNEKRYLTTISLSNTYLTFAKPTTELLSIRYRTYFIIGKYAESLTEIAKL | 0.22
21 | HMTVTTDITQYFLQENGLLNGPNARQLRQKIGETLNIGYTNGKQLLKRAQQFGLTRDQILTALKK | 0.278
22 | HMTVVIKVQASQLESWKSSAGTEIKAKLIAVEDEKTYLFVTETGKTIRATAAQLDESSVSRARKLAGL | -0.514
23 | HMTYGYFELKAKNLDSLKQFLKGIAQVESIEEENNGLKVFLKNELESEELSEKLAEAKIFVSHLAKKK | -0.617
24 | HMTYKPAADFKPSDTSSLKEGMKVEHPKFGFGTVMKMEEVGTERKARINFADFGEKTLLLSFAKLKIHEN | -0.361
25 | HMTYNEYPEKEMQDLIDKSISQQEQAASQYGYSLGDYVTARYGFQSESDFREYVQGLAEDYMKEKI | -1.33
26 | HMTYQHQSIIHRRTRGAILTAAKELLAESGISGTNMIEIADRAQVSRASLYNHFRDKHEVFLALVES | -0.407

Row | Sequence | soluble fraction (log2)
27 | HMTYSAWIEKAYSELEKKGITEAELSDALDKRGINLEDLKLMGPDEAVKYQSEVEGVVLELSKSKE | -0.319
28 | HMTYSEEEIERDLYVRGTLYQIGDLVENKIDGTSGEIVRRGPNYVQYSDGENFYKAFLHSIQEV | -1.45
29 | HMTYTMVAYGSQGDAVRQLQSELNRHGYQLDEDGVFGKKTRAAVRDYQKKNSLRLDGIAGDETWGSLLA | -0.522
30 | HMTYTPRAGSLASQVIGFFRHNPDEELLLDDITDKFDATRGNIHTLLAEAVRFKLLARYRNDDGDYVYKPG | -1.6
31 | HMVAADTVQVPDVTGKTVADAKQALISAGLQVGTVTAKDGKETANTILETSPAAGTSVDKGSKVNLVYSTG | -0.0646
32 | HMVAAITDLPVKSVNGRQMYYYVVRKGETVYSLTHTLGITHDRLVKANRSVEDGLRAGQILYFPVSEFG | -0.00401
33 | HMVAELAEMAENKNITSAQLALAWILKQSENIIPIPGTKRIKYLNENIEAVNVDLSKEDVENIENLLRKYP | -0.65
34 | HMVAGHLQEKNGQFYAVLSYKDTKGKRRTKWVPTGLMVRGNKKRAEAMLNDIRRKFVPPEQED | 0.249
35 | HMVAGPDEPLSDREQGVLDLLAEGLSNKAISKQLGISVATVKSHLSNIYGKLQAENRMQAVARARELGLM | -0.386
36 | HMVAISNTSGLAGVAYWIQSNIPKGIDIRKDNPGIVTIKNWIDEEYRKGRTTTISEEEMFKLVREYMPEL | -1.12
37 | HMVAMGQRVVPLTHLSIDDVRRLLESTYGKDSGIEVTKPGTAAKGVIVTAPRTELDGIVALVKQA | 0.0822
38 | HMVAMYLRVGISNGRRYLSIVQGYRDQVTKKVRHNTVKSLGYLDDLEKHYPDPIAHFKAVVEEMNKKQALE | 0.191
39 | HMVANDQILNQYGISDREAEIIGLLIEGLSNQQIAKQLYISPNTVKTHIKNIYAKVGVNNRLQLFSLLK | -0.549
40 | HMVANLPFNYKVYAKKGKLYVVISYKDSNGKYKKKWIRTGLDEGTKKKEVNTVADQIAAEYYSSMRLE | 0.0398
41 | HMVAQQINDFRSERDASTGTLKRPLFDTLRDVISSRAQAYVSATGKPVTVEDLDRIYQAVEAEAKQAL | -0.349
42 | HMVDDELTARRRVNLRRIADELGGAAAVARKTQKSVQQISSMLNGTKSFGSKIARDIEPKLGLPLQSLDKE | 0.203
43 | HMVDDRPVTGTTLIREWQGRAYEVIVQAGHFEFQGQRYQSLSAIAKVITGTVWNGWAFFGLR | -0.444
44 | HMVDDTGLPTVLISDGRLLERNLHRLHLDHTWLQRRLEENNIPSIQSLFLLTVDKQHQLYFLKK | -0.277
45 | HMVDGTPALTDLKKVSKPGRRHYTGSQEIPRVLNGLGISIVSTSKGIMTGAQARRQKVGGELLAFV | 0.22
46 | HMVDIIMDLLEAVAQARPADAFIKSLHIQYQERGGLSKKQLQGLYGKAAKTAGIPPGKLATLEAIILKRP | -0.0377
47 | HMVDITPDLIRTLLERFGEYGVTKEHIEARIQRHIESILPAQVVQLRKTYNSLKDGMSQPSDWFDI | -1.43
48 | HMVDLEINGRQTLQFVANKYGIPVEKLATDLNIPSDRFGEKLGRLRRQYAFTMNDVRKSILKNK | 0.215
49 | HMVDPELFIWVESSKEPVYHLAYKIELFVHSTDPQDDVPVHRWQVFVDAHNGNILDKFDEVR | -1.65
50 | HMVDPRWETPDENLAEQIKSVMPVMWVYDREAKSFVERPAIDFSFSIFERTTLYIYDKDGNEIGFAR | 0.0599
51 | HMVDQVDKDRFLEALTQLGGSAGNVRLRETLQWEEEVYVIIKDALVKSGTILTGRGRGGSVLLASA | -0.909
52 | HMVDSLTIGRRIRQLRTERGMTLEELAAAVGRAPSQLSMIENGRREPKLTLLQAIARALGSTLDALLE | -0.404

Row | Sequence | soluble fraction (log2)
53 | HMVDVNLLKYYVMESGKSLTDVAAAIGVTPATLHRKMSGESDFYRKEMQDIASYLGLDRDTIDRIFF | -0.892
54 | HMVEDIVLTDAQIEFVKQQAKNGLSAFQISEMIWPEMSVKRFSKQHVAVLDFLREYEPAYVHDSE | -1.85
55 | HMVEELDVQFIKLTVQGDHPWKNKKIRELSIPWDLLFVLIIRGDKSIIPNGKTTIKDGDIVVVSAPEYRG | -1.5
56 | HMVEFLMESTNGMYGIVKEGSSYYVQKGINESSLDYIGGMFMKDKNRFSSYSTALKRLELISGQET | -0.497
57 | HMVEGMQFDRGYQSPYFVTNAEKMVAELDNPYILLVEKKISSMKELLPVLEPVAQQGKSLLIISEEVEG | -0.602
58 | HMVEGTVKWFNDEKGFGFIEQEGGKDVFVHFSAINGSGRRTLHEGQRVTMEVTQGQKGPQAENVNP | -0.436
59 | HMVEIPEFKITTFVNTDNEQIAEFENGFTDKKAEITFNNTKYVFKEKLPDQDGIRTYVYEELHE | -0.438
60 | HMVELGMSQNEFIQKFGKPFNKEMAYTYDKHKRETLFYKEDLYRGSWFIVTTAFTFVDSKLVSQEIVREER | -0.349
61 | HMVENMDEFIGRVRRLVSDRLDLLKEASDDEIRETISQVVLELSREQFLTLNEKKTVLEGVFNSMR | -1.38
62 | HMVERLVVSPGAGVFAPNKAIANGTRISVGDVLGMVGEQEVRSLFDGVLQSFISVDGERLTAHQPVAWLRT | -0.111
63 | HMVEVPKVAGMSTAQGVSELEQKGFVVNRTESYDDTVPKGNIISQTPEGGTKVPSGSAVTIKISQGAE | -0.0558
64 | HMVEVPNVIGMTKPELTQQFVNLKLDGSGEGDVVVQQSPSEGSKVKEGSTVRVYFG | 0.137
65 | HMVEVPNVSNLTLEQAENKLIQQGLQVKLEGQGEKVVAQIPQPGAVVNKKSTVILF | 0.0373
66 | HMVFLPDEIFRLKVIKAGEGPEQGVGYLDDGTMVVIEGARDRIGDELEVRVTSTLQTNAGKMIFTKFE | -2.12
67 | HMVGEPEPIRYSRFLDEMKSGKLDSVVIQGDTILGVRKDKSQFKTVNPETDYSALIGALDKAGVGIEGRA | 0.149
68 | HMVGEYTVKKGDTLWKIAGQTLGSPLRYAEIYELNKDVIEEAALGRGKKNSSNGHWIFQGTVLKIPA | -0.255
69 | HMVGIAEAMKHIADEDYGDLSAIFKQIFSDTDGGRNFSDAIRTQMRSTDSSGLRKVLSTLIMSIEE | -0.854
70 | HMVGNEEALRAIVESIIAQNTTEVASFREGKEGLIGWFLGQVMRQTGGKADPKLARQILLELLKQ | -0.492
71 | HMVGNYYDILGVPETATQDAIKKAFRSLAQQHHPDKNPDDPGAEAMFKKVSEAYQVLSDPDKRQTYDASL | -0.0611
72 | HMVIDFYDPQTKVIHEIKKSSAKEEAHVWQVKYYIYLFEKEEIMGVKGVLEYPLLREIVSVNF | -0.0844
73 | HMVINQRKLNLLSIYSSGSEKRAIILFPTGQTKFVKVGDTLDGGRVAAIGTSEIRYLKGGNNLVLRIPG | 0.173
74 | HMVINTRHTGFVVDDLERFINFYLGLGLKLISRKVESGEYIDKLVGLKGTKLEWAKLSLPDNSMIEILKYH | -0.454
75 | HMVIREVNDNPVSAEELRLGDRVKVLSLGQNGEIVTLPDEKGELTVQVGILKAKVNLDDIMLI | 0.0234
76 | HMVISAKRMQDRRDSILDAAREAFARAGFEGTSIADIARRAGVSDGLVYRYFASKRDLLNAVLTA | 0.216
